{"source": "paper doi:10.1101/2025.08.04.25332941", "key": {"[1]": {"target": "HLA-A*33 with C-terminal His tag (A*33-His Tg) (human)", "experiment": "SPR"}, "[2]": {"target": "HLA-A*24 with C-terminal His tag (A*24-His Tg) (human)", "experiment": "SPR"}}}
{"substance": "Toxoplasma antigenic peptide SAG2C, wild type", "values": [{"measurement": "SPR response at 200 µM", "setting": "[1]", "result": 150, "unit": "RU"}, {"measurement": "SPR response at 200 µM", "setting": "[2]", "result": 15, "unit": "RU"}]}
